Data taken from publication PMC6428836, “A complex of novel protease inhibitor, ovostatin homolog, with its cognate proteases in immature mice uterine luminal fluid” (Scientific Reports, 2019).

Biological target: the molecule itself
Experiment: SEC + other: non-reducing and reducing SDS-PAGE; about 700 kDa on Sephacryl S-400, about 360 kDa in non-reducing SDS-PAGE, traces of the 162 kDa subunit under reduction; tetramer of two disulfide-linked dimers

B1: mouse ovostatin homolog (natural protein, mouse (endogenous in immature mouse ULF), UniProt Q3UU35 20-1456, looked up)
chain: AEPRYILWVSSVVQRFSSEKACLHLLNLNESVSLSVTLEYDGSSTTIFDQPVDEGNFYACADFKVSQMSSEQLAFVALLVQGNTLKISERRSVAIAAEENATFVQTDTPVHKPGDTVHFRVVTLNIWLKPVDDLYPLITVQDPQSNVIFQWINVTTFRNITQLSFQLTPEPILGDYTIVIKTQSGTTVMDHFTVNRDVLPKFEVELTAPETITIADSQFQMVTCAKYTYGQPVQGKAQIKVCRELFSPAHCESNENEICEQFTVQLKDGCASHIINTKVFQLDRSGLFMTLNVNEVVTESGTGVQMSKTHSVFITSVLGTVSFENMDPFYRRGITYFGTLKFSGPNNTPLVDKLLQLELDGKPVGNYTTDENGEARFSINTSEIFGAQISLKAVYVRPRSCHRSSWLSPEYLDAYFSASRFYSQTSSFTKIILEPKQLPCDQEKMFSVLYSLNPEAYKEASDVTFFYLVMVRGGISRSGQKQVRVQAWNGNFSFPISINADLAPSADLFVYTLHPSGEIVADNVRLQIEKCFKNKVSINFSRDKDLPGSNTSVHLQAAPDSFCALRAVDKSALLLNHGQEMTPESVYFTLPYIHQYGYFYNGLNLDDQQAEPCIPQKDLFYNGLYYTPTGNIWDGDLSNLLSNMGLKIFTNLHYRKPEVCSSQENQPLLRTFDHPNERIMMYGGGAPPSSAFHDSVDSISHAKVAIKETVRTNFPRTWIWNLVSVDSSGTANVSFLVPDTITQWEASAFCVNGNAGFGISPKVSLQISQPFFVEVTSPFSVVRSEQSDMVVTVFNYLTTCVEISVQLEASENYEASINTQRNTDSEVLQAGEQKTYVWTIIPKTLGKVNVTVVATSKQSRACPNDASKEQDVHWKDTVVKTMLVEAEGIEKEATQSFLICPKGTKASKQTLLELPSNVVEGSVRSFVTIVGDILGVAMQNLESLLQMPYGCGEQNIAQLASDVYILDYLKATDQLTEELKSKAQRLLSNGYQNHLSFKNYDGSYDVFCQSNQEGSTWLSALSFKTVEKMKEYIFIEETVPKQTLIWLVKKQKSNGCFRRDEKHVDTAQEGREGDQEDIALTAYVVGVFLEVGLNASFPALRNGLYCLEEAFSNGVTNGYTQAILAYVFALAGKEQQAKSLLSILDKSATKTNNMIYWERDEKPETDNSPSFIPSALSGETEKTCYVLLAVLSQDTQDLDYASKIVQWLAQRMNSHGGFSAMQDTTVCLLALTQYMKLTGSNPQNTITLSSEESEEVFYVNRNKRLLVQHSKVSKGHQQYTVDVEGDGCSFIQATLRYNVPLPKEASGFSLSVKTGKSNSSDEFQTKFELTVTLTYTGARESSVTVLVDVKMLSGFTPVVSSTEELKFNSQVTKTDIKNGHVLFYLENVPKEATSLTFSIEQTNHVANIQPAPVTVYSYEKGEYAFDSYNINSISDSQ
notes: ovostatin homolog, mouse, NP_001001179.2; predicted subunit 162 kDa; 360 kDa in non-reducing SDS-PAGE, about 700 kDa by gel filtration; In ULF most subunits are seen as an 88 kDa fragment under reducing conditions, only traces as the 162 kDa subunit; also called mOH; 360 kDa protein; source: endogenous, uterine luminal fluid (ULF) of DES-treated immature ICR mice; also partly purified from it …
In the case of B1, the “stoichiometry N” value is reported as 4.
